Tests used:
[1] = target: T1, von Willebrand factor (VWF) (Homo sapiens, UniProt P04275 P04275:764-2813); experiment: filter; Bmax 70%; 2 mM CaCl2, 37 C; settings: tags: factor VIII free, Haematologic Technologies Inc; label: 5'-32P
Experimental: (§1) Affinity constants (Kd values) were determined using double-filter nitrocellulose filter binding assays (Rusconi et al, Thromb. Haemost. $4:841-848 (2000)). All binding studies were performed in binding buffer F (20 mM HEPES, pH 7.4, 150 mM NaCl, 2 mM CaCl₂, and 0.01% BSA) at 37° C. Human purified VWF (factor VIII free) was purchased from Haematologic Technologies Inc. (Essex Junction, Vt.) and used in the double-filter nitrocellulose filter binding assay to determine the Kd of the aptamers. Briefly, RNA were end-labeled at the 5′ end with T4 polynucleotide kinase (New England Biolabs, Beverly, Mass.) and [γ³²P] ATP (Amersham Pharmacia Biotech, Piscataway, N.J.) (Fitzwater and Polisky, Methods Enzymol. 267:275-301 (1996)). End-labeled RNA was diluted in binding buffer F, heat denatured at 65° C. for 5 minutes, and subsequently equilibrated at 37° C. Direct binding was performed by incubating trace ³²P-RNA with varying concentrations of VWF protein in binding buffer F at 37° C. for 5 min. The fraction of the nucleic acid-protein complex which bound to the nitrocellulose membrane was quantified with a phosphorimager (Molecular Dynamics, Sunnyvale, Calif.). Non-specific binding of the radiolabeled nucleic acid was subtracted out of the binding such that only specific binding remained (Wong and Lohman, Proc. Natl. Acad. Sci. USA 90:5428-5432 (1993)).

[2] = target: T1, von Willebrand factor (VWF); experiment: filter; Bmax 56%; 2 mM CaCl2, 37 C; settings: tags: factor VIII free, Haematologic Technologies Inc
Experimental: as §1

[3] = target: von Willebrand factor (VWF) in whole blood (Homo sapiens, UniProt P04275 P04275:764-2813); experiment: inhibition; platelet adhesion to collagen under high shear, human whole blood; text gives 72.6; settings: protein: extract; tags: endogenous, hirudin-anticoagulated human whole blood
Experimental: The Venaflux™ microfluidics system (Cellix, Dublin, Ireland) measures platelet adhesion on a collagen surface. Human blood was collected into hirudin tubes from healthy volunteers by vena puncture. An aliquot containing 300 μl of whole blood treated with aptamer or platelet-binding buffer alone was flowed through collagen-coated micro-channels at 60 dynes for 3 minutes. Channels were then rinsed with saline for 3 minutes to wash away RBC and unbound platelets. Venaflux imaging software and Image Pro Plus were used to image bound platelets and calculate covered surface area. Aptamer was incubated at 95° C. for 3 minutes, placed on ice for 3 minutes, then incubated for 10 minutes at room temperature. After cooling, aptamer was kept on ice until use. Total surface area covered by bound platelets in treated blood was expressed as a percentage of total coverage in negative control blood. Statistical significance was determined by analysis of variance; IC₅₀ of the aptamer was calculated using a fitted linear regression curve.
To evaluate the inhibitory effect of the aptamer on platelet adhesion, human whole blood samples were treated with aptamer starting at 900 nmol/L with 2-fold dilutions to 14 nmol/L and tested by measuring platelet adhesion under high-shear stress. The aptamer prevented platelet adhesion to the collagen surface in a dose-dependent manner (FIG. 20-22).

[4] = target: T1, von Willebrand factor (VWF); experiment: filter; Bmax 64.8%; 2 mM CaCl2, 37 C; settings: tags: factor VIII free, Haematologic Technologies Inc; label: 5'-32P
Experimental: as §1

[5] = target: T1, von Willebrand factor (VWF); experiment: filter; Bmax 75%; 2 mM CaCl2, 37 C; settings: Haematologic Technologies Inc, label: 5'-32P
Experimental: as §1

[6] = target: T1, von Willebrand factor (VWF); experiment: filter; Bmax 20%; 2 mM CaCl2, 37 C; settings: tags: factor VIII free, Haematologic Technologies Inc; label: 5'-32P
Experimental: as §1

[7] = target: T1, von Willebrand factor (VWF); experiment: filter; Bmax 64%; 2 mM CaCl2, 37 C; settings: tags: factor VIII free, Haematologic Technologies Inc; label: 5'-32P
Experimental: as §1

[8] = target: T1, von Willebrand factor (VWF); experiment: filter; Bmax 50%; 2 mM CaCl2, 37 C; settings: tags: factor VIII free, Haematologic Technologies Inc; label: 5'-32P
Experimental: as §1

[9] = target: T1, von Willebrand factor (VWF); experiment: filter; Bmax 90%; 2 mM CaCl2, 37 C; settings: tags: factor VIII free human purified VWF, Haematologic Technologies Inc; label: 5'-32P
Experimental: as §1

[10] = target: T1, von Willebrand factor (VWF); experiment: filter; Bmax 89%; 2 mM CaCl2, 37 C; settings: tags: factor VIII free human purified VWF, Haematologic Technologies Inc; label: 5'-32P
Experimental: as §1

[11] = target: T1, von Willebrand factor (VWF); experiment: filter; Bmax 65%; 2 mM CaCl2, 37 C; settings: tags: factor VIII free, Haematologic Technologies Inc; label: 5'-32P
Experimental: as §1

[12] = target: T1, von Willebrand factor (VWF); experiment: filter; Bmax 70%; 20 mM HEPES pH 7.4, 150 mM NaCl, 2 mM CaCl2, 0.01% BSA, 37 C; settings: tags: factor VIII free, Haematologic Technologies Inc; label: 5'-32P
Experimental: as §1

[13] = target: T1, von Willebrand factor (VWF); experiment: filter; Bmax 68%; 2 mM CaCl2, 37 C; settings: tags: factor VIII free, Haematologic Technologies Inc; label: 5'-32P
Experimental: as §1

Binder: ACGAACUGCCCUCGAUCGACGCACAGACGU (ssRNA, mAmCmGmAmAmCfUmGfCfCfCmUmCmGmAmUmCmGmAfCrGfCmAmCmAmGmAmCmGfU-idT) [T59 vrt17]
- Kd [1]: 13 nM

Binder: ACGAACUGCCCUCGAUCGACGCACAGACGUUUUUU (ssRNA, mAmCmGmAmAmCmUmGfCfCfCmUmCmGmAmUmCmGmAfCfGfCmAmCmAmGmAmCmGmUmUmUmUmUmU-idT) [T79 vrt7 (DTRI-031)]
- Kd [2]: 11.2 nM
- IC50 [3]: 72.5 nM

Binder: ACGAACUGCCCUCGUAAGACGCACAGACGUUUUUU (ssRNA, mAmCmGmAmAmCmUmGfCfCfCmUmCmGmUmAmAmGmAfCrGfCmAmCmAmGmAmCmGmUmUmUmUmUmUidT) [DTRI-019]
- Kd [4]: 4.3 nM

Binder: ACGAACUGCCCUCGAUCGACGCACAGACGUUUUUU (ssRNA, mAmCmGmAmAmCmUmGfCfCfCmUmCmGmAmUmCmGmAfCrGfCmAmCmAmGmAmCmGmUmUmUmUmUmU-idT) [T79 vrt4]
- Kd ([5]; tags: factor VIII free): 13 nM

Binder: ACGAACUGCCCUCGAUCGACGCACAGACGUUUUUU (ssRNA, mAmCmGmAmAmCmUmGfCfCfCmUmCmGmAmUmCmGmAfCmGfCmAmCmAmGmAmCmGfUmUmUmUmUmU-idT) [T79 vrt3]
- Kd [6]: 66 nM

Binder: ACGAACUGCCCUCGAUCGACGCACAGACGUUUUUU (ssRNA, 2'-F C and U; 2'-OH A and G; 3' idT) [T79]
- Kd [7]: 1.6 nM

Binder: ACGAACUGCCCUCAGACUUUCAUGUCUGACGCACAGACGU (ssRNA, 2'-F C and U; 2'-OH A and G; 3' idT) [T39]
- Kd [8]: 11 nM

B1: T94 vrt1 (ssRNA)
RNA: ACGAACUGCCCUCUUUUUUGACGCACAGACGU
modifications: 2'-F C2,U7,C9,C10,C11,U12,C22,C24,C30,U32; ribo A1,G3,G8,A21,G23,A25,G31; rest 2'-OMe; 3' idT
- Kd [9]: 0.9 nM

B2: T93 vrt1 (ssRNA)
RNA: ACGAACUGCCCUCUAUUUCAUUUGACGCACAGACGU
modifications: 2'-F C2,U7,C9,C10,C11,U12,C26,C28,C34,U36; ribo A1,G3,G8,A25,G27,A29,G35; rest 2'-OMe; 3' idT
- Kd [10]: 0.8 nM

B3: T95 vrt1 (ssRNA)
RNA: ACGAACUGCCCUCUUUUUUUUGACGCACAGACGU
modifications: 2'-F C2,U7,C9,C10,C11,U12,C24,C26,C32,U34; ribo A1,G3,G8,A23,G25,A27,G33; rest 2'-OMe; 3' idT
- Kd [9]: 0.9 nM

Binder: ACGAACUGCCCUCGAUCGACGCACAGACGU (ssRNA, mAmCmGmAmAmCfUmGfCfCfCmUmCmGmAmUmCmGmAfCmGfCrAmCmAmGmAmCmGfU-idT) [T59 vrt15]
- Kd [11]: 32.5 nM

B4: VWF9.14 full length (ssRNA)
RNA: GGGAGGACGAUGCGGUGGACGAACUGCCCUCAGCUACUUUCAUGUUGCUGACGCACAGACGACUCGCUGAGGAUCCGAGA
modifications: 2'-F C and U; 2'-OH A and G
- Kd [12]: 12 nM

Binder: ACGAACUGCCCUCAGCUACUUAUGUUGCUGACGCACAGACGU (ssRNA, 2'-F C and U; 2'-OH A and G; 3' idT) [T37]
- Kd [13]: 10 nM

Binder: ACGAACUGCCCUCGUAUUAUUUCGACGCACAGACGU (ssRNA, 2'-F C9,C10,C11,C26,G27,C28; rest 2'-OMe; 3' idT) [T89 vrt7]
- Kd ([5]; tags: factor VIII free human purified VWF): 38.5 nM

— patent US20190218553, “VON WILLEBRAND FACTOR (VWF)-TARGETING AGENTS AND METHODS OF USING THE SAME” (DUKE UNIVERSITY, published 2019)
